*1 amine or outer side, *2 acyl side, *3 side chain or, on linkers, in order; H or OH if unused. Bridges are numbered along the chain shown (N, C = ends). [ ]: non-standard residue; d: D form. The star is where a group is joined. C20 diacid = O=C(O)CCCCCCCCCCCCCCCCCCC(=O)*; γGlu = O=C(O)[C@H](CCC(=O)[*:2])N[*:1]; Hyp = O=C(O)[C@@H]1C[C@@H](O)CN1; NMeI = CC[C@H](C)[C@H](NC)C(=O)O; Sar = CNCC(=O)O
Biological target: T1, human amylin receptor 3 (hAMYR3), hCTR2 co-expressed with human receptor activity modifying protein 3 (hRAMP3) (human, UniProt P30988 25-474; O60896 24-148)
T1 sequence (looked up) 1: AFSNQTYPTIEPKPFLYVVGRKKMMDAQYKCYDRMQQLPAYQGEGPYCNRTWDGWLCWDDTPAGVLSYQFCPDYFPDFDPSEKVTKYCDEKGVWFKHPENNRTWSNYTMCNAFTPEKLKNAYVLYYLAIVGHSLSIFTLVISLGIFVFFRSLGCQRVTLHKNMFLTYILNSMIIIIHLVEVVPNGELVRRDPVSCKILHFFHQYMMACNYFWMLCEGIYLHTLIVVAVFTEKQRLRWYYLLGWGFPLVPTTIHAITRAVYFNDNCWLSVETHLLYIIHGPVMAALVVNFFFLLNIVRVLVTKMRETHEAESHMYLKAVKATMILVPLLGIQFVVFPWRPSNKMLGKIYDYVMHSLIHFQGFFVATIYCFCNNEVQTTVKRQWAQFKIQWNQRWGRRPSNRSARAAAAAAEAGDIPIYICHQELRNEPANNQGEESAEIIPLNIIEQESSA
T1 sequence (looked up) 2: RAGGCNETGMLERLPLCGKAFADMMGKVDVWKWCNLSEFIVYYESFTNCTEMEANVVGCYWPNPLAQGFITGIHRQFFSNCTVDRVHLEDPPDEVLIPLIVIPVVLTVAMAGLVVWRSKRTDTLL
Assay: cell-based or functional assay

B1: [19CD]-isoGlu-R-C( )-NTAT-C( )-ATERLADFLQRSSF-Gly(Me)-A-Ile(Me)-LSSTEVGSNT-Hyp-NH2 (Compd. 68) (peptide)
peptide: {C20 diacid-γGlu}-RCNTATCATERLADFLQRSSF[Sar]A[NMeI]LSSTEVGSNT[Hyp]-NH2
modifications: disulfide 2-7
SMILES: CC[C@H](C)[C@@H](C(=O)N[C@@H](CC(C)C)C(=O)N[C@@H](CO)C(=O)N[C@@H](CO)C(=O)N[C@H](C(=O)N[C@@H](CCC(=O)O)C(=O)N[C@H](C(=O)NCC(=O)N[C@@H](CO)C(=O)N[C@@H](CC(N)=O)C(=O)N[C@H](C(=O)N1C[C@H](O)C[C@H]1C(N)=O)[C@@H](C)O)C(C)C)[C@@H](C)O)N(C)C(=O)[C@H](C)NC(=O)CN(C)C(=O)[C@H](Cc1ccccc1)NC(=O)[C@H](CO)NC(=O)[C@H](CO)NC(=O)[C@H](CCCNC(=N)N)NC(=O)[C@H](CCC(N)=O)NC(=O)[C@H](CC(C)C)NC(=O)[C@H](Cc1ccccc1)NC(=O)[C@H](CC(=O)O)NC(=O)[C@H](C)NC(=O)[C@H](CC(C)C)NC(=O)[C@H](CCCNC(=N)N)NC(=O)[C@H](CCC(=O)O)NC(=O)[C@@H](NC(=O)[C@H](C)NC(=O)[C@@H]1CSSC[C@H](NC(=O)[C@H](CCCNC(=N)N)NC(=O)CC[C@H](NC(=O)CCCCCCCCCCCCCCCCCCC(=O)O)C(=O)O)C(=O)N[C@@H](CC(N)=O)C(=O)N[C@@H]([C@@H](C)O)C(=O)N[C@@H](C)C(=O)N[C@@H]([C@@H](C)O)C(=O)N1)[C@@H](C)O
Question: With B1 as the binder, how does the “hAMYR3 EC50 (nM); cAMP induction” value read?
Answer: Its value is 0.29 nM.

B2: [19CD]-isoGlu-R-C( )-NTAT-C( )-ATQRLADFLQRSSF-Gly(Me)-A-Ile(Me)-LSSTEVGSNTP-NH2 (Compd. 65) (peptide)
peptide: {C20 diacid-γGlu}-RCNTATCATQRLADFLQRSSF[Sar]A[NMeI]LSSTEVGSNTP-NH2
modifications: disulfide 2-7
SMILES: CC[C@H](C)[C@@H](C(=O)N[C@@H](CC(C)C)C(=O)N[C@@H](CO)C(=O)N[C@@H](CO)C(=O)N[C@H](C(=O)N[C@@H](CCC(=O)O)C(=O)N[C@H](C(=O)NCC(=O)N[C@@H](CO)C(=O)N[C@@H](CC(N)=O)C(=O)N[C@H](C(=O)N1CCC[C@H]1C(N)=O)[C@@H](C)O)C(C)C)[C@@H](C)O)N(C)C(=O)[C@H](C)NC(=O)CN(C)C(=O)[C@H](Cc1ccccc1)NC(=O)[C@H](CO)NC(=O)[C@H](CO)NC(=O)[C@H](CCCNC(=N)N)NC(=O)[C@H](CCC(N)=O)NC(=O)[C@H](CC(C)C)NC(=O)[C@H](Cc1ccccc1)NC(=O)[C@H](CC(=O)O)NC(=O)[C@H](C)NC(=O)[C@H](CC(C)C)NC(=O)[C@H](CCCNC(=N)N)NC(=O)[C@H](CCC(N)=O)NC(=O)[C@@H](NC(=O)[C@H](C)NC(=O)[C@@H]1CSSC[C@H](NC(=O)[C@H](CCCNC(=N)N)NC(=O)CC[C@H](NC(=O)CCCCCCCCCCCCCCCCCCC(=O)O)C(=O)O)C(=O)N[C@@H](CC(N)=O)C(=O)N[C@@H]([C@@H](C)O)C(=O)N[C@@H](C)C(=O)N[C@@H]([C@@H](C)O)C(=O)N1)[C@@H](C)O
Question: B2 was tested. Which “hAMYR3 EC50 (nM); cAMP induction” value did it give?
Answer: The value was 0.26 nM.

B3: [19CD]-isoGlu-R-C( )-NTAT-C( )-ATQRLAHFLQRSSF-Gly(Me)-A-Ile(Me)-LSSTEVGSST-Hyp-NH2 (Compd. 69) (peptide)
peptide: {C20 diacid}-[γGlu]RCNTATCATQRLAHFLQRSSF[Sar]A[NMeI]LSSTEVGSST[Hyp]-NH2
modifications: disulfide 3-8
SMILES: CC[C@H](C)[C@@H](C(=O)N[C@@H](CC(C)C)C(=O)N[C@@H](CO)C(=O)N[C@@H](CO)C(=O)N[C@H](C(=O)N[C@@H](CCC(=O)O)C(=O)N[C@H](C(=O)NCC(=O)N[C@@H](CO)C(=O)N[C@@H](CO)C(=O)N[C@H](C(=O)N1C[C@H](O)C[C@H]1C(N)=O)[C@@H](C)O)C(C)C)[C@@H](C)O)N(C)C(=O)[C@H](C)NC(=O)CN(C)C(=O)[C@H](Cc1ccccc1)NC(=O)[C@H](CO)NC(=O)[C@H](CO)NC(=O)[C@H](CCCNC(=N)N)NC(=O)[C@H](CCC(N)=O)NC(=O)[C@H](CC(C)C)NC(=O)[C@H](Cc1ccccc1)NC(=O)[C@H](Cc1c[nH]cn1)NC(=O)[C@H](C)NC(=O)[C@H](CC(C)C)NC(=O)[C@H](CCCNC(=N)N)NC(=O)[C@H](CCC(N)=O)NC(=O)[C@@H](NC(=O)[C@H](C)NC(=O)[C@@H]1CSSC[C@H](NC(=O)[C@H](CCCNC(=N)N)NC(=O)CC[C@H](NC(=O)CCCCCCCCCCCCCCCCCCC(=O)O)C(=O)O)C(=O)N[C@@H](CC(N)=O)C(=O)N[C@@H]([C@@H](C)O)C(=O)N[C@@H](C)C(=O)N[C@@H]([C@@H](C)O)C(=O)N1)[C@@H](C)O
Question: B3 was tested. Which “hAMYR3 EC50 (nM); cAMP induction” value did it give?
Answer: Its value is 0.17 nM.

B4: [19CD]-isoGlu-R-C( )-PTAT-C( )-ATERLADFLQRSSF-Gly(Me)-A-Ile(Me)-LSSTEVGSNTP-NH2 (Compd. 67) (peptide)
peptide: {C20 diacid}-[γGlu]RCPTATCATERLADFLQRSSF[Sar]A[NMeI]LSSTEVGSNTP-NH2
modifications: disulfide 3-8
SMILES: CC[C@H](C)[C@@H](C(=O)N[C@@H](CC(C)C)C(=O)N[C@@H](CO)C(=O)N[C@@H](CO)C(=O)N[C@H](C(=O)N[C@@H](CCC(=O)O)C(=O)N[C@H](C(=O)NCC(=O)N[C@@H](CO)C(=O)N[C@@H](CC(N)=O)C(=O)N[C@H](C(=O)N1CCC[C@H]1C(N)=O)[C@@H](C)O)C(C)C)[C@@H](C)O)N(C)C(=O)[C@H](C)NC(=O)CN(C)C(=O)[C@H](Cc1ccccc1)NC(=O)[C@H](CO)NC(=O)[C@H](CO)NC(=O)[C@H](CCCNC(=N)N)NC(=O)[C@H](CCC(N)=O)NC(=O)[C@H](CC(C)C)NC(=O)[C@H](Cc1ccccc1)NC(=O)[C@H](CC(=O)O)NC(=O)[C@H](C)NC(=O)[C@H](CC(C)C)NC(=O)[C@H](CCCNC(=N)N)NC(=O)[C@H](CCC(=O)O)NC(=O)[C@@H](NC(=O)[C@H](C)NC(=O)[C@@H]1CSSC[C@H](NC(=O)[C@H](CCCNC(=N)N)NC(=O)CC[C@H](NC(=O)CCCCCCCCCCCCCCCCCCC(=O)O)C(=O)O)C(=O)N2CCC[C@H]2C(=O)N[C@@H]([C@@H](C)O)C(=O)N[C@@H](C)C(=O)N[C@@H]([C@@H](C)O)C(=O)N1)[C@@H](C)O
Question: Which “hAMYR3 EC50 (nM); cAMP induction” value does the source give for B4 here?
Answer: The value was 0.65 nM.

B5: [19CD]-isoGlu-R-C( )-GTAT-C( )-ATERLAHFLQRSSF-Gly(Me)-A-Ile(Me)-LSSTEVGSNT-Hyp-NH2 (Compd. 7) (peptide)
peptide: {C20 diacid}-[γGlu]RCGTATCATERLAHFLQRSSF[Sar]A[NMeI]LSSTEVGSNT[Hyp]-NH2
modifications: disulfide 3-8
SMILES: CC[C@H](C)[C@@H](C(=O)N[C@@H](CC(C)C)C(=O)N[C@@H](CO)C(=O)N[C@@H](CO)C(=O)N[C@H](C(=O)N[C@@H](CCC(=O)O)C(=O)N[C@H](C(=O)NCC(=O)N[C@@H](CO)C(=O)N[C@@H](CC(N)=O)C(=O)N[C@H](C(=O)N1C[C@H](O)C[C@H]1C(N)=O)[C@@H](C)O)C(C)C)[C@@H](C)O)N(C)C(=O)[C@H](C)NC(=O)CN(C)C(=O)[C@H](Cc1ccccc1)NC(=O)[C@H](CO)NC(=O)[C@H](CO)NC(=O)[C@H](CCCNC(=N)N)NC(=O)[C@H](CCC(N)=O)NC(=O)[C@H](CC(C)C)NC(=O)[C@H](Cc1ccccc1)NC(=O)[C@H](Cc1c[nH]cn1)NC(=O)[C@H](C)NC(=O)[C@H](CC(C)C)NC(=O)[C@H](CCCNC(=N)N)NC(=O)[C@H](CCC(=O)O)NC(=O)[C@@H](NC(=O)[C@H](C)NC(=O)[C@@H]1CSSC[C@H](NC(=O)[C@H](CCCNC(=N)N)NC(=O)CC[C@H](NC(=O)CCCCCCCCCCCCCCCCCCC(=O)O)C(=O)O)C(=O)NCC(=O)N[C@@H]([C@@H](C)O)C(=O)N[C@@H](C)C(=O)N[C@@H]([C@@H](C)O)C(=O)N1)[C@@H](C)O
Question: With B5 as the binder, how does the “hAMYR3 EC50 (nM); cAMP induction” value read?
Answer: The value was 0.34 nM.

B6: [19CD]-isoGlu-R-C( )-NTAT-C( )-ATERLADFLQRSSF-Gly(Me)-A-Ile(Me)-LSSTEVGSNTP-NH2 (Compd. 66) (peptide)
peptide: {C20 diacid-γGlu}-RCNTATCATERLADFLQRSSF[Sar]A[NMeI]LSSTEVGSNTP-NH2
modifications: disulfide 2-7
SMILES: CC[C@H](C)[C@@H](C(=O)N[C@@H](CC(C)C)C(=O)N[C@@H](CO)C(=O)N[C@@H](CO)C(=O)N[C@H](C(=O)N[C@@H](CCC(=O)O)C(=O)N[C@H](C(=O)NCC(=O)N[C@@H](CO)C(=O)N[C@@H](CC(N)=O)C(=O)N[C@H](C(=O)N1CCC[C@H]1C(N)=O)[C@@H](C)O)C(C)C)[C@@H](C)O)N(C)C(=O)[C@H](C)NC(=O)CN(C)C(=O)[C@H](Cc1ccccc1)NC(=O)[C@H](CO)NC(=O)[C@H](CO)NC(=O)[C@H](CCCNC(=N)N)NC(=O)[C@H](CCC(N)=O)NC(=O)[C@H](CC(C)C)NC(=O)[C@H](Cc1ccccc1)NC(=O)[C@H](CC(=O)O)NC(=O)[C@H](C)NC(=O)[C@H](CC(C)C)NC(=O)[C@H](CCCNC(=N)N)NC(=O)[C@H](CCC(=O)O)NC(=O)[C@@H](NC(=O)[C@H](C)NC(=O)[C@@H]1CSSC[C@H](NC(=O)[C@H](CCCNC(=N)N)NC(=O)CC[C@H](NC(=O)CCCCCCCCCCCCCCCCCCC(=O)O)C(=O)O)C(=O)N[C@@H](CC(N)=O)C(=O)N[C@@H]([C@@H](C)O)C(=O)N[C@@H](C)C(=O)N[C@@H]([C@@H](C)O)C(=O)N1)[C@@H](C)O
Question: With B6 as the binder, how does the “hAMYR3 EC50 (nM); cAMP induction” value read?
Answer: Its value is 0.3 nM.
